{"source": "patent US20030082150A1", "key": {"[1]": {"biological_target": "HLA.A1 molecule on cells that do not express the antigen MAGE-1 (infected with control adenovirus Ad-βgal) (human)", "assay": "cell-based or functional assay"}, "[2]": {"biological_target": "Mage-1 antigenic nonapeptide presented by the HLA.A1 molecule on cells (human) (UniProt P43355)", "assay": "cell-based or functional assay"}}}
{"sequence": "T cell receptor of the anti-Mage-1 CTL clone 82:30 (TCR)", "values": [{"measurement": "% lysis, 51Cr release 4 h, E/T 0.1, C1R infected Ad β gal (500 pfu/cell)", "setting": "[1]", "result": 2, "unit": "%"}, {"measurement": "% lysis, 51Cr release 4 h, E/T 0.1, Gerlach E- infected Ad β gal (500 pfu/cell)", "setting": "[1]", "result": 2, "unit": "%"}, {"measurement": "% lysis, 51Cr release 4 h, E/T 0.3, C1R infected Ad β gal (500 pfu/cell)", "setting": "[1]", "result": 1, "unit": "%"}, {"measurement": "% lysis, 51Cr release 4 h, E/T 0.3, Gerlach E- infected Ad β gal (500 pfu/cell)", "setting": "[1]", "result": 0, "unit": "%"}, {"measurement": "% lysis, 51Cr release 4 h, E/T 1, C1R infected Ad β gal (500 pfu/cell)", "setting": "[1]", "result": 3, "unit": "%"}, {"measurement": "% lysis, 51Cr release 4 h, E/T 1, Gerlach E- infected Ad β gal (500 pfu/cell)", "setting": "[1]", "result": 0, "unit": "%"}, {"measurement": "% lysis, 51Cr release 4 h, E/T 3, C1R infected Ad β gal (500 pfu/cell)", "setting": "[1]", "result": 4, "unit": "%"}, {"measurement": "% lysis, 51Cr release 4 h, E/T 3, Gerlach E- infected Ad β gal (500 pfu/cell)", "setting": "[1]", "result": 0, "unit": "%"}, {"measurement": "% lysis, 51Cr release 4 h, E/T 10, C1R infected Ad β gal (500 pfu/cell)", "setting": "[1]", "result": 2, "unit": "%"}, {"measurement": "% lysis, 51Cr release 4 h, E/T 10, Gerlach E- infected Ad β gal (500 pfu/cell)", "setting": "[1]", "result": 0, "unit": "%"}, {"measurement": "% lysis, 51Cr release 4 h, E/T 30, C1R infected Ad β gal (500 pfu/cell)", "setting": "[1]", "result": 3, "unit": "%"}, {"measurement": "% lysis, 51Cr release 4 h, E/T 30, Gerlach E- infected Ad β gal (500 pfu/cell)", "setting": "[1]", "result": 0, "unit": "%"}, {"measurement": "TNF produced by the CTL clone, +CTL, Gerlach E- infected with Ad. βgal, 50 pfu/cell", "setting": "[1]", "result": 0, "unit": "pg TNF"}, {"measurement": "TNF produced by the CTL clone, +CTL, Gerlach E- infected with Ad. βgal, 100 pfu/cell", "setting": "[1]", "result": 0, "unit": "pg TNF"}, {"measurement": "% lysis, 51Cr release 4 h, E/T 0.1, C1R infected Ad Mage-1 (500 pfu/cell)", "setting": "[2]", "result": 28, "unit": "%"}, {"measurement": "% lysis, 51Cr release 4 h, E/T 0.1, C1R transfected with Mage-1", "setting": "[2]", "result": 19, "unit": "%"}, {"measurement": "% lysis, 51Cr release 4 h, E/T 0.1, Gerlach E- infected Ad Mage-1 (500 pfu/cell)", "setting": "[2]", "result": 2, "unit": "%"}, {"measurement": "% lysis, 51Cr release 4 h, E/T 0.3, C1R infected Ad Mage-1 (500 pfu/cell)", "setting": "[2]", "result": 44, "unit": "%"}, {"measurement": "% lysis, 51Cr release 4 h, E/T 0.3, C1R transfected with Mage-1", "setting": "[2]", "result": 25, "unit": "%"}, {"measurement": "% lysis, 51Cr release 4 h, E/T 0.3, Gerlach E- infected Ad Mage-1 (500 pfu/cell)", "setting": "[2]", "result": 5, "unit": "%"}, {"measurement": "% lysis, 51Cr release 4 h, E/T 1, C1R infected Ad Mage-1 (500 pfu/cell)", "setting": "[2]", "result": 44, "unit": "%"}, {"measurement": "% lysis, 51Cr release 4 h, E/T 1, C1R transfected with Mage-1", "setting": "[2]", "result": 30, "unit": "%"}, {"measurement": "% lysis, 51Cr release 4 h, E/T 1, Gerlach E- infected Ad Mage-1 (500 pfu/cell)", "setting": "[2]", "result": 6, "unit": "%"}, {"measurement": "% lysis, 51Cr release 4 h, E/T 3, C1R infected Ad Mage-1 (500 pfu/cell)", "setting": "[2]", "result": 61, "unit": "%"}, {"measurement": "% lysis, 51Cr release 4 h, E/T 3, C1R transfected with Mage-1", "setting": "[2]", "result": 45, "unit": "%"}, {"measurement": "% lysis, 51Cr release 4 h, E/T 3, Gerlach E- infected Ad Mage-1 (500 pfu/cell)", "setting": "[2]", "result": 13, "unit": "%"}, {"measurement": "% lysis, 51Cr release 4 h, E/T 10, C1R infected Ad Mage-1 (500 pfu/cell)", "setting": "[2]", "result": 59, "unit": "%"}, {"measurement": "% lysis, 51Cr release 4 h, E/T 10, C1R transfected with Mage-1", "setting": "[2]", "result": 40, "unit": "%"}, {"measurement": "% lysis, 51Cr release 4 h, E/T 10, Gerlach E- infected Ad Mage-1 (500 pfu/cell)", "setting": "[2]", "result": 15, "unit": "%"}, {"measurement": "% lysis, 51Cr release 4 h, E/T 30, C1R infected Ad Mage-1 (500 pfu/cell)", "setting": "[2]", "result": 62, "unit": "%"}, {"measurement": "% lysis, 51Cr release 4 h, E/T 30, C1R transfected with Mage-1", "setting": "[2]", "result": 33, "unit": "%"}, {"measurement": "% lysis, 51Cr release 4 h, E/T 30, Gerlach E- infected Ad Mage-1 (500 pfu/cell)", "setting": "[2]", "result": 15, "unit": "%"}, {"measurement": "TNF produced by the CTL clone, +CTL, Gerlach E+ (HLA A1+) (Mage 1+)", "setting": "[2]", "result": 45, "unit": "pg TNF"}, {"measurement": "TNF produced by the CTL clone, +CTL, Gerlach E- infected with Ad. Mage 1, 50 pfu/cell", "setting": "[2]", "result": 4, "unit": "pg TNF"}, {"measurement": "TNF produced by the CTL clone, +CTL, Gerlach E- infected with Ad. Mage 1, 100 pfu/cell", "setting": "[2]", "result": 12, "unit": "pg TNF"}, {"measurement": "optical density (MTT, WEHI-164-13 viability) of 24 h supernatant, +CTL, Gerlach E+ (HLA A1+) (Mage 1+) (optical density)", "setting": "[2]", "result": 0.17}, {"measurement": "optical density (MTT, WEHI-164-13 viability) of 24 h supernatant, +CTL, Gerlach E- infected with Ad. Mage 1, 50 pfu/cell (optical density)", "setting": "[2]", "result": 0.58}, {"measurement": "optical density (MTT, WEHI-164-13 viability) of 24 h supernatant, +CTL, Gerlach E- infected with Ad. Mage 1, 100 pfu/cell (optical density)", "setting": "[2]", "result": 0.355}]}
